# Reference: PMC10929410
# B1: native FlaB (flagellin type B, glycosylated) of Pseudomonas aeruginosa strain PAO1 (natural protein)
# chain: MALTVNTNIASLNTQRNLNASSNDLNTSLQRLTTGYRINSAKDDAAGLQISNRLSNQISGLNVATRNANDGISLAQTAEGALQQSTNILQRIRDLALQSANGSNSDADRAALQKEVAAQQAELTRISDTTTFGGRKLLDGSFGTTSFQVGSNAYETIDISLQNASASAIGSYQVGSNGAGTVASVAGTATASGIASGTVNLVGGGQVKNIAIAAGDSAKAIAEKMDGAIPNLSARARTVFTADVSGVTGGSLNFDVTVGSNTVSLAGVTSTQDLADQLNSNSSKLGITASINDKGVLTITSATGENVKFGAQTGTATAGQVAVKVQGSDGKFEAAAKNVVAAGTAATTTIVTGYVQLNSPTAYSVSGTGTQASQVFGNASAAQKSSVASVDISTADGAQNAIAVVDNALAAIDAQRADLGAVQNRFKNTIDNLTNISENATNARSRIKDTDFAAETAALSKNQVLQQAGTAILAQANQLPQAVLSLLR
# modifications: simple O-glycan without rhamnose, attached via deoxyhexosamine
# B2: recombinant FlaB (non-glycosylated) (natural protein)
# chain: MALTVNTNIASLNTQRNLNASSNDLNTSLQRLTTGYRINSAKDDAAGLQISNRLSNQISGLNVATRNANDGISLAQTAEGALQQSTNILQRIRDLALQSANGSNSDADRAALQKEVAAQQAELTRISDTTTFGGRKLLDGSFGTTSFQVGSNAYETIDISLQNASASAIGSYQVGSNGAGTVASVAGTATASGIASGTVNLVGGGQVKNIAIAAGDSAKAIAEKMDGAIPNLSARARTVFTADVSGVTGGSLNFDVTVGSNTVSLAGVTSTQDLADQLNSNSSKLGITASINDKGVLTITSATGENVKFGAQTGTATAGQVAVKVQGSDGKFEAAAKNVVAAGTAATTTIVTGYVQLNSPTAYSVSGTGTQASQVFGNASAAQKSSVASVDISTADGAQNAIAVVDNALAAIDAQRADLGAVQNRFKNTIDNLTNISENATNARSRIKDTDFAAETAALSKNQVLQQAGTAILAQANQLPQAVLSLLR
# B3: deglycosylated native FlaB (natural protein)
# chain: MALTVNTNIASLNTQRNLNASSNDLNTSLQRLTTGYRINSAKDDAAGLQISNRLSNQISGLNVATRNANDGISLAQTAEGALQQSTNILQRIRDLALQSANGSNSDADRAALQKEVAAQQAELTRISDTTTFGGRKLLDGSFGTTSFQVGSNAYETIDISLQNASASAIGSYQVGSNGAGTVASVAGTATASGIASGTVNLVGGGQVKNIAIAAGDSAKAIAEKMDGAIPNLSARARTVFTADVSGVTGGSLNFDVTVGSNTVSLAGVTSTQDLADQLNSNSSKLGITASINDKGVLTITSATGENVKFGAQTGTATAGQVAVKVQGSDGKFEAAAKNVVAAGTAATTTIVTGYVQLNSPTAYSVSGTGTQASQVFGNASAAQKSSVASVDISTADGAQNAIAVVDNALAAIDAQRADLGAVQNRFKNTIDNLTNISENATNARSRIKDTDFAAETAALSKNQVLQQAGTAILAQANQLPQAVLSLLR
# modifications: treated with trifluoromethanesulfonic acid to remove the O-glycans
# Molecular target: human Toll-like receptor 5 on HEK-Blue-hTLR5 reporter cells (human) (UniProt O60602)
# UniProt O60602, sequence (O60602 21-858): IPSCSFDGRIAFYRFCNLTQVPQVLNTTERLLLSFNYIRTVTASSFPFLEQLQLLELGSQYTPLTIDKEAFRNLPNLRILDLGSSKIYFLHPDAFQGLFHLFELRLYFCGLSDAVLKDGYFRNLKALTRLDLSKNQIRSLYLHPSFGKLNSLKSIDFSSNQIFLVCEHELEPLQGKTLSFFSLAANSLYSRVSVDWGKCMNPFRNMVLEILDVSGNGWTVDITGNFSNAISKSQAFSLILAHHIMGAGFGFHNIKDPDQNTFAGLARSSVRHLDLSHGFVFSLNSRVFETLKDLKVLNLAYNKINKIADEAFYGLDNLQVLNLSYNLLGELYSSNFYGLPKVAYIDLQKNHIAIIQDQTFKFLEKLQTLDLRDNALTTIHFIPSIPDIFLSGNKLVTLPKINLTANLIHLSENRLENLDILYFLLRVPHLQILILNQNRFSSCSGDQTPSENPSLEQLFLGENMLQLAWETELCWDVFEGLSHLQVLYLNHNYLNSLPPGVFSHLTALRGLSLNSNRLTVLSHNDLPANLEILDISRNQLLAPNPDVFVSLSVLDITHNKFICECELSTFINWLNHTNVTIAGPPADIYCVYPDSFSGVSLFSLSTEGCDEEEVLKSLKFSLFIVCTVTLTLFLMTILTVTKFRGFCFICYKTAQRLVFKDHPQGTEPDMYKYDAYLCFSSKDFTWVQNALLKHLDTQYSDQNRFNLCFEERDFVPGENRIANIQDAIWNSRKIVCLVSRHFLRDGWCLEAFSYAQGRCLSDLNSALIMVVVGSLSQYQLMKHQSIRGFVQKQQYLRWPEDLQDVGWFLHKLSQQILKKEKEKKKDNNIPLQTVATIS
Molecule,"EC50 of TLR5 activation (SEAP, OD 620 nm) in HEK-Blue-hTLR5 reporter cells, 10 pg/mL to 10 µg/mL, 24 h","EC50 of TLR5 activation (SEAP, OD 620 nm) in HEK-Blue-hTLR5 reporter cells, 10 pg/mL to 10 µg/mL, 24 h; the sentence prints the label dnFlaA, taken as dnFlaB from the context of Fig. 4D [µg/mL]"
deglycosylated native FlaA (from UniProt P21184 1-394) (natural protein),0.291 µg/mL,
"native FlaA (flagellin type A, glycosylated) of Pseudomonas aeruginosa strain PAK (from UniProt P21184 1-394) (natural protein)",0.0021 µg/mL,
recombinant FlaA (non-glycosylated) (from UniProt P21184 1-394) (natural protein),0.0415 µg/mL,
B1,0.0444 µg/mL,
B2,104,
B3,,0.442
